Test results as given in PMC11544074.

Target: GFP-pNLRC3-8xHis (Sus scrofa (pig), UniProt A0A287AW79 1-1066)
Experiment: MST

B1: HSV120 dsDNA (unlabelled) (dsDNA)
DNA 1: TAAGACACGATGCGATAAAATCTGTTTGTAAAATTTATTAAGGGTACAAATGCCCTAGCTAGACACGATGCGATAAAATCTGTTTGTAAAATTTATTAAGGGTACAAATTGCCCTAGC
DNA 2: GCTAGGGCAATTTGTACCCTTAATAAATTTTACAAACAGATTTTATCGCATCGTGTCTAGCTAGGGCATTTGTACCCTTAATAAATTTTACAAACAGATTTTATCGCATCGTGTCTTA
B1 gave a Kd of 10.1 µM.
